Measured values: US8541200B2, “Cleavage of fusion proteins using Granzyme B protease” (Hoffmann-La Roche Inc., priority 2003, dated 2013)
“Also recorded” adds a separate entry of the source.

How the values were obtained:
FXa = FXa (Bos taurus, UniProt P00743); assay: Cleavage of fusion proteins by FXa, SDS PAGE; type: biochemical, bovine; details: protease:fusion protein 1:1000, 23° C.
Description: (§1) Both H6-IEPD-RAP (SEQ ID NO: 23) and H6-IEGR-RAP were in 100 mM HEPES pH 7.4 and the following incubations were set up at room temperature, 23° C., with the protease:fusion protein ratio 1:1000: • 1. […] 400 μl (app. 400 μg) H6-GrB-RAP+2 μl GrB-H6 (app. 0.4 μg)
250 μl (app. 400 μg) H6Ubi-IEPD-ApoA1+0.4 μg GrB-H6 C228F • 2.

[1] = Colorimetric Granzyme B activity assay with Ac-IEPD-pNA (absorbance at 405 nm); type: biochemical; details: for Granzyme B activity ΔOD405/min: pro-IEGR-GrB-H6 incubated with FXa at 4° C.; for completion of self-activation: 4° C., without addition of previously activated Granzyme B; for ΔOD405/min (self-activation): 100 mM HEPES pH 7.5
Description: GrB-H6 activity was measured using the following mix: 500 μl buffer, 2 μl 100 mM Ac-IEPD-pNA, and 5 μl GrB-H6.
Recombinant self-activating human Granzyme B derivatives IEPD-GrB-H6 and IEAD-GrB-H6 were produced as described in Example 2 by using the expression vectors pT7-IEPD-GrB-H6 and pT7-IEAD-GrB-H6 described in Example 1. The IEAD-GrB-H6 and IEPD-GrB-H6 proteins were eluted from the SP Sepharose columns and stored at 4° C. for 2 days before the activity of the respective top fractions were determined by using a colorimetric assay. For this purpose the following was mixed: 500 μl buffer (100 mM HEPES pH 7.5), 2 μl 100 mM Ac-IEPD-pNA, and 5 μl protein solution. The change in absorption was then determined at 405 nm during 3 min. The activity was further determined after additional incubation for 1 and 2 days at 4° C.
The activity of the activated and purified GrB-H6 was measured in different buffers using the Ac-IEPD-pNA substrate: 500 μl buffer, 2 μl 100 mM Ac-IEPD-pNA, and 5 μl GrB-H6. The ΔOD405/min was calculated from the first 0.75 min unless otherwise noted.

GrB-H6 = target: T1, GrB-H6 (Homo sapiens, UniProt P10144, R55Q); assay: Cleavage of fusion proteins by GrB-H6, SDS PAGE; type: biochemical; details: for fusion protein cleaved at IEPD↓ and internal AQPD↓ site: 10 μl GrB-H6, no Ca^2+
T1 construct: MGSIEGR (N, cleaved yes); made in house; host or cells: E. coli BL21
Description: (§2) The fusion protein H6-TripUB IEPD↓SP (SEQ ID NO: 22) (prepared as described in Example 7) eluted from the Ni^2+-NTA-agarose column was gel filtrated into 100 mM HEPES pH 7.5 and 200 μl samples of the top-fraction was incubated at room temperature with either 0, 1 or 10 μl of activated GrB-H6 (approximately 0, 0.2 and 2 μg GrB-H6).
With the H6-TripUB IEPD↓SP (SEQ ID NO: 22) fusion protein the following nine incubations (Table 9) were set up using 200 μl H6-TripUB IEPD↓SP (SEQ ID NO: 22) and 5 μl GrB-H6 (approximately 1 μg GrB-H6) for each incubation.
as §2, with “H6-IEPD-RAP” for “H6-TripUB IEPD↓SP”, “23)” for “22)”, “7.4” for “7.5”, “GrB-H6). Samples for SDS PAGE were taken after 5, 23 and 26 hours of incubation, see FIG. 10.” for “GrB-H6).”
as §1
The fusion protein H6-IEPD-TN123 (SEQ ID NO: 25) (prepared as described in Example 7) eluted from the Q Sepharose was after final purification gel filtrated into 100 mM HEPES pH 7.5, and 200 μl samples of the top-fraction was incubated at room temperature with either 0, 1 or 10 μl of activated GrB-H6 (approximately 0, 0.2 and 2 μg GrB-H6) both with and without 5 mM CaCl2 present. Samples for SDS PAGE from the incubations without CaCl2 were taken after 12, 19 and 24 hours as well as 5 days of incubation. Samples for SDS PAGE from the incubations both with and without CaCl2 were taken after approximately 20 and 48 hours of incubation, see FIG. 14.
Each of the fusion proteins eluted from the Ni^2+-NTA-agarose column were gel filtrated into 100 mM HEPES pH 7.4 and fractions of approximately the same concentration of the five different H6-TripUB variants were used. The five variants were H6-TripUB IEPD↓SP (SEQ ID NO: 22), H6-TripUB IQAD↓SP (SEQ ID NO: 26), H6-TripUB IQAD↓SG (SEQ ID NO: 27), H6-TripUB VGPD↓SP (SEQ ID NO: 28) and H6-TripUB VGPD↓FG (SEQ ID NO: 29). Of each fusion protein 200 μl was incubated at room temperature, 23° C., with 5 μl of activated GrB-H6 (approximately 1 μg GrB-H6). The protease:fusion protein ratio was thereby 1:500.

Sequence of FXa (P00743 234-492 limits assumed): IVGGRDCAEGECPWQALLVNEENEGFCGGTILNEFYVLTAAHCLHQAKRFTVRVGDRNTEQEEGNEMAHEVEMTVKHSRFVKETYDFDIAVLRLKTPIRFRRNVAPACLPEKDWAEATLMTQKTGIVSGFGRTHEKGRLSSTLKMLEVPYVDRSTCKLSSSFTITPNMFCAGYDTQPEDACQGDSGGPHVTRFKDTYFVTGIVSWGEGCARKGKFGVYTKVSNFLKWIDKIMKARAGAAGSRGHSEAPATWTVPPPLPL
Sequence of FXa (P00743 41-180 partner limits assumed): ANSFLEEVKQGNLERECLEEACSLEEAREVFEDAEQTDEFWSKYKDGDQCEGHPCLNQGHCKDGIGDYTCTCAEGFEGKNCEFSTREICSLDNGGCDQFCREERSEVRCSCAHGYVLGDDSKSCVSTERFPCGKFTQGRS

In the case of “H6-IEGR-RAP: FXa cleavable hexa-His RAP fusion protein with recognition sequence IEGR”, the “correctly cleaved product left” value (FXa; 27 hours) is reported as “no correctly cleaved product left” and the “fusion protein correctly cleaved” value (FXa; ½ hour) is reported as “almost all of the fusion protein has been cleaved”.

For “pro-IEGR-GrB-H6: pro-Granzyme B fusion protein with FXa recognition sequence IEGR and C-terminal hexa-His tag, SEQ ID NO:1”, the “Granzyme B activity ΔOD405/min” value ([1]; 0 hours) was 0.0073 ΔOD405/min, the “Granzyme B activity ΔOD405/min” value ([1]; 2 hours) was 0.0200 ΔOD405/min and the “Granzyme B activity ΔOD405/min” value ([1]; 5 hours) was 0.0250 ΔOD405/min. For the same molecule, the “Granzyme B activity ΔOD405/min” value ([1]; 19 hours) was 0.0829 ΔOD405/min, the “Granzyme B activity ΔOD405/min” value ([1]; 2 days (45 hours)) was 0.1325 ΔOD405/min and the “Granzyme B activity ΔOD405/min” value ([1]; 5 days (120 hours)) was 0.1832 ΔOD405/min.

B1: H6-IEPD-TN123: hexa-His Tetranectin (TN123) fusion protein with Granzyme B recognition site IEPD, SEQ ID NO. 25 (protein)
chain: MGSHHHHHHGSIEPDGEPPTQKPKKIVNAKKDVVNTKMFEELKSRLDTLAQEVALLKEQQALQTVCLKGTKVHMKCFLAFTQTKTFHEASEDCISRGGTLSTPQTGSENDALYEYLRQSVGNEAEIWLGLNDMAAEGTWVDMTGARIAYKNWETEITAQPDGGKTENCAVLSGAANGKWFDKRCRDQLPYICQFGIV
modifications: H6-IEPD-TN123
With B1 the “internal cleavage at AQPD↓ site” value (GrB-H6; 5 mM Ca^2+ added) was “no internal cleavage is observed”, the “fusion protein cleaved at IEPD↓ and internal AQPD↓ site” value (GrB-H6; 2 days) was “almost all the fusion protein has been cleaved twice” and the “fusion protein cleaved at IEPD↓ and internal AQPD↓ site” value (GrB-H6; 5 days) was “almost all of the fusion protein has been cleaved twice”. For the same molecule, the “fusion protein correctly cleaved” value (GrB-H6; 200 μl fusion protein + 10 μl GrB-H6, 5 mM Ca^2+, 12 hours) was “approximately 40%” and the sites cleaved (GrB-H6; no Ca^2+ present) was “cleaved correctly at the IEPD sequence, but also just as rapidly at an internal site of the sequence AQPD”.

B2: H6-IEPD-RAP: hexa-His RAP fusion protein with Granzyme B recognition site IEPD, SEQ ID NO. 23 (protein)
chain: MGSHHHHHHGSIEPDYSREKNQPKPSPKRESGEEFRMEKLNQLWEKAQRLHLPPVRLAELHADLKIQERDELAWKKLKLDGLDEDGEKEARLIRNLNVILAKYGLDGKKDARQVTSNSLSGTQEDGLDDPRLEKLWHKAKTSGKFSGEELDKLWREFLHHKEKVHEYNVLLETLSRTEEIHENVISPSDLSDIKGSVLHSRHTELKEKLRSINQGLDRLRRVSHQGYSTEAEFEEPRVIDLWDLAQSANLTDKELEAFREELKHFEAKIEKHNHYQKQLEIAHEKLRHAESVGDGERVSRSREKHALLEGRTKELGYTVKKHLQDLSGRISRARHNEL
modifications: H6-IEPD-RAP
For B2, the “GrB-sensitive sites in RAP” value (GrB-H6; 19 possible sites (19 Asp residues)) was “only one GrB-sensitive site”, the fusion protein cleaved (GrB-H6; 200 μl fusion protein + 1 or 10 μl GrB-H6, room temperature, 5 hours) was “all the H6-IEPD-RAP (SEQ ID NO: 23) has been cleaved to give the final product; also recorded: all the H6-IEPD-RAP (SEQ ID NO: 23) was cleaved to give the final product” and the “fusion protein correctly cleaved” value (GrB-H6; protease:fusion protein 1:1000, 23° C., ½ hour) was “nearly all the H6-IEPD-RAP (SEQ ID NO: 23) has been cleaved correctly”.

B3: IEPD-GrB-H6: self-activating human pro-Granzyme B with IEPD recognition site and C-terminal H6, SEQ ID NO:2 (protein)
chain: MGSIEPDIIGGHEAKPHSRPYMAYLMIWDQKSLKRCGGFLIQDDFVLTAAHCWGSSINVTLGAHNIKEQEPTQQFIPVKRPIPHPAYNPKNFSNDIMLLQLERKAKRTRAVQPLRLPSNKAQVKPGQTCSVAGWGQTAPLGKHSHTLQEVKMTVQEDRKCESDLRHYYDSTIELCVGDPEIKKTSFKGDSGGPLVCNKVAQGIVSYGRNNGMPPRACTKVSSFVHWIKKTMKRYLNSHHHHHH
modifications: C-terminal His6 tag; pro-IEPD-GrB-H6
For B3, the completion of self-activation [1] was “not completed until after a least three or four days”, the “ΔOD405/min (self-activation)” value ([1]; stored at 4° C. 2 days) was 0.1284 ΔOD405/min and the “ΔOD405/min (self-activation)” value ([1]; stored at 4° C. 3 days) was 0.1375 ΔOD405/min. The “ΔOD405/min (self-activation)” value ([1]; stored at 4° C. 4 days) was 0.1351 ΔOD405/min.

B4: IEAD-GrB-H6: self-activating human pro-Granzyme B with IEAD recognition site and C-terminal H6, SEQ ID NO:3 (protein)
chain: MGSIEADIIGGHEAKPHSRPYMAYLMIWDQKSLKRCGGFLIQDDFVLTAAHCWGSSINVTLGAHNIKEQEPTQQFIPVKRPIPHPAYNPKNFSNDIMLLQLERKAKRTRAVQPLRLPSNKAQVKPGQTCSVAGWGQTAPLGKHSHTLQEVKMTVQEDRKCESDLRHYYDSTIELCVGDPEIKKTSFKGDSGGPLVCNKVAQGIVSYGRNNGMPPRACTKVSSFVHWIKKTMKRYLNSHHHHHH
modifications: pro-IEAD-GrB-H6
In the case of B4, the completion of self-activation [1] is reported as “not completed until after a least three or four days”, the “ΔOD405/min (self-activation)” value ([1]; stored at 4° C. 2 days) is reported as 0.1372 ΔOD405/min and the “ΔOD405/min (self-activation)” value ([1]; stored at 4° C. 3 days) is reported as 0.1607 ΔOD405/min. For the same molecule, the “ΔOD405/min (self-activation)” value ([1]; stored at 4° C. 4 days) was 0.1983 ΔOD405/min.
